Laboratory results from paper PMC5651433 (Alzheimer's & Dementia : Translational Research & Clinical …, 2017).
Non-standard residues stand in square brackets, D forms with d. No end group written: not given here. pY = N[C@@H](Cc1ccc(OP(=O)(O)O)cc1)C(=O)O; pS = N[C@@H](COP(=O)(O)O)C(=O)O

Biological target: the molecule itself
Assay: reducing SDS-PAGE and Western blotting of SDS-resistant polymers

Molecule	binding result
MSSRRSSSCKYCEQDFRAHTQKNAATPFLAN [Zfra1–31 (zinc finger-like protein that regulates apoptosis, full-length synthetic peptide)]	binds

Each molecule was assayed against endogenous Aβ (AD hippocampus) (human (endogenous in postmortem hippocampus)) (assay: FRET or BRET).

Molecule	FRETc
endogenous Zfra (human hippocampus) (natural protein)	> 45

Biological target: the molecule itself
Assay: nonreducing SDS-PAGE of peptide polymers

Molecule	binding result
AGLDDTDSEDELPPG [WWOX7-21]	binds
DYWAMLAYNRSKLC [WWOX286-299]	binds
RIQNPSLRENDFIEIE [ANKRD40266-281]	binds
AGLDDTD[pS]EDELPPG [pS14-WWOX7-21]	binds
RIQNP[pS]LRENDFIEIE [pS271-ANKRD40266-281]	binds
D[pY]WAMLAYNRSKLC [pY287-WWOX286-299]	binds
DPGPGGQKMSL[pS]VLE [pS35-TPC6A24-38]	binds
